Assay results reported in article PMC5906480, “Tau Antibody Structure Reveals a Molecular Switch Defining a Pathological Conformation of the Tau Protein” (Scientific Reports, 2018).
“Also recorded” adds a separate entry of the source.

Tests used:
[1] = test system: pS404 peptide; experiment: ELISA, pS404 peptide; type: binding; settings: plate coated with peptide 2 μg/mL; C5.2 IgG 8 μg/mL–0.05 ng/mL, 1 h room temperature; 405 nm
Description: (§1) Immulon 4 HBX (extra high-binding) 96-well microtiter plates (Thermo Scientific) were coated with the same peptide used for crystallization diluted to 2 μg/mL in phosphate-buffered saline (PBS) and left overnight at 4 °C (Table 1). Plates were then washed three times in PBS-T (PBS containing 0.05% Tween-20) and blocked in 5% non-fat milk and 3% bovine serum albumin in PBS for 2 hours at room temperature. Plates were subsequently washed 3 times in PBS-T before C5.2 was serially diluted (8 μg/mL–0.05 ng/mL) in PBS and incubated for 1 hour at room temperature. Then, alkaline phosphatase-conjugated goat anti-mouse IgG (Southern Biotech) was diluted 1:2000 in PBS and incubated for 30 minutes at room temperature. Finally, bound IgG was analyzed by addition of p-nitrophenyl phosphate substrate (Thermo Scientific) and measurement at 405 nm on a VersaMax Microplate Reader.
(§2) In order to evaluate the ability of C5.2 to exclusively target the phosphorylated epitope, we performed an enzyme-linked immunosorbent assay (ELISA). The peptides used in the assay are the same peptides used for crystallization and diluted to a concentration of 2 μg/mL (Table 1). Binding curves were generated from ELISA data by maintaining plate-bound peptide concentrations and serially diluting C5.2 IgG (Fig. 1c).

[2] = test system: non-phosphorylated peptide; experiment: ELISA, non-phosphorylated peptide; type: binding; settings: plate coated with peptide 2 μg/mL; C5.2 IgG 8 μg/mL–0.05 ng/mL, 1 h room temperature; 405 nm
Description: as §1, §2

[3] = test system: tau in brain fractions of rTg4510 mice overexpressing human tau with P301L mutation; experiment: Western and dot blot, rTg4510 mouse brain; type: binding, human tau in rTg4510 mouse; settings: C5.2 1 µg/mL overnight 4 °C, 24 weeks old mice
Source text: (§3) rTg4510, tTA and non-Tg littermate F1 mice were bred at Taconic, Denmark. Mice expressing the tTA activator transgenes were maintained on 129S6 background strain (Taconic) and mutant tau responder mice were maintained in the FVB/NCrl background strain (Taconic). Mice were screened by PCR using the following primer pairs [NT] and [NT] for the tTA activator transgene and [NT] and [NT] for the mutant tau responder transgene. rTg4510, tTA and non-Tg littermates were group-housed (5 animals/cage) and received water and food ad libitum (Brogaarden, Denmark) as well as environmental enrichment. The light/dark cycle was 12 hours; room temperature was 21 ± 2 °C and a relative humidity of 55% ± 5%. All animal experiments were performed in accordance with the European Communities Council Directive #86/609, the directives of the Danish National Committee on Animal Research Ethics, and Danish legislation on experimental animals (license no. 2014-15-0201-00339). Mice were euthanized by cervical dislocation. Brains were quickly removed, weighed and divided sagittally down the midline to yield two hemispheres. […] Tau and pTau levels were assessed in the samples using 1 μg/mL C5.2 overnight at 4 °C. A secondary fluorophore conjugated IgG antibody was used (IRDye 680 Goat anti-mouse, LICOR biosciences) and the signal was quantified using Odyssey CLx and Image studio software (LI-COR biosciences). […]

[4] = test system: normal tau in the soluble tau fraction (S1) from non-transgenic littermates; experiment: Western and dot blot, non-transgenic littermate brain; type: binding, mouse; settings: C5.2 1 µg/mL overnight 4 °C, 24 weeks old non-tg mice
Source text: as §3

[5] = test system: tau pathology in Alzheimer's disease brain sections (prefrontal cortex); experiment: Immunohistochemistry, Alzheimer's disease brain sections; type: binding, human; settings: C5.2 at 0.1 to 1 μg/mL, overnight 4 °C, paraffin sections
Description: (§4) Paraffin sections of 4 μm thickness were prepared from blocks of PFA-fixed prefrontal cortex from AD donors and non-demented controls obtained from Tissue Solutions (Glasgow, UK). The sections were deparaffinised, rehydrated and subjected to antigen retrieval by boiling in 10 mM citrate buffer pH 6 for 5 min. Endogenous peroxidase was quenched for 10 min with 1% H2O2 in PBS. Sections were then incubated 20 min in blocking buffer followed by overnight incubation in a humidified chamber at 4 °C with primary antibody at 0.1 to 1 μg/mL in incubation buffer. Between each incubation step, the sections were washed 3 × 10 min in wash buffer. Subsequently, the sections were incubated at room temperature in the following solutions; 60 min with a biotinylated secondary Ab diluted 1:200 in wash buffer; 60 min in ABC; 20 min in DAB. Finally, the sections were counterstained with hematoxylin and coverslipped.

[6] = test system: normal tau in brain sections from healthy control subjects (prefrontal cortex); experiment: Immunohistochemistry, healthy control brain sections; type: binding, human; settings: C5.2 at 0.1 to 1 μg/mL, overnight 4 °C, paraffin sections
Description: as §4

B1: C5.2: novel mouse monoclonal antibody that targets the pS396 tau epitope region (antibody, V domains shown)
VH: QVQLQQSDAELVKPGASVKISCKASGYTFTDRTIHWVKQRPEQGLEWIGYIYPGDDSTKYNDMFKAKATLTADKSSNTAYMQLNSLTSDDSAVYFCARRGTMDYWGQGTSVTVSS
VL: DVQMIQSPSSLSASLGDIVTMTCQASQDTSINLNWFQQKPGKAPKLLIYGASNLEDGVPSRFSGSRYGTDFTLTISSLEDEDMATYFCLQHTYLPFTFGSGTKLEIK
- Recognition of peptide (ELISA) [1]: lack of recognition; also recorded: does not bind
- Recognition of peptide (ELISA) [2]: lack of recognition; also recorded: does not bind
- Binding to insoluble tau fraction (P3) ([3]; sarkosyl-insoluble P3): binds predominantly to an insoluble tau fraction (P3)
- Reactivity to soluble tau fraction (S1) ([3]; soluble S1): also has reactivity to a soluble tau fraction (S1)
- Detection of normal tau (S1) [4]: not detected
- Binding in AD brain sections [5]: binds strongly to tangles, pre-tangles and dystrophic neurites
- Binding to normal tau in brain sections [6]: does not bind to normal tau
